# Starred links: 1 amine or outer side, 2 acyl side, 3 side chain; linkers in the order of their positions; H or OH if unused. Positions of bridges follow the written chain, without caps; N, C: chain ends. Non-standard residues stand in square brackets, D forms with d. Groups on a side chain read outwards from the residue. Primed or numbered codes have the meaning given here. TMAPF = 5-(4-(2-amino-2-carboxyethyl)phenoxy)-N,N,N-trimethylpentan-1-aminium, C[N+](C)(C)CCCCCOc1ccc(C[C@H](N[*:1])C(=O)[*:2])cc1; 6Br2Nal = 2-amino-3-(6-bromonaphthalen-2-yl)propanoic acid, O=C([C@H](Cc1ccc2cc(Br)ccc2c1)N[*:1])[*:2]; 6F2Nal = 2-amino-3-(6-fluoronaphthalen-2-yl)propanoic acid, O=C([C@H](Cc1ccc2cc(F)ccc2c1)N[*:1])[*:2]; Trp(7-(3-AcNH-Ph)) = CC(=O)Nc1cccc(-c2cccc3c(C[C@H](N)C(=O)O)c[nH]c23)c1; PEG2NMePEG2NMegENMeCl8Tetrazole = not defined here; 2Nal(6-OH) = N[C@@H](Cc1ccc2cc(O)ccc2c1)C(=O)O; Trp(7-Me) = Cc1cccc2c(C[C@H](N)C(=O)O)c[nH]c12; γGlu = O=C(O)[C@H](CCC(=O)[*:2])N[*:1]; AEF = NCCOc1ccc(C[C@H](N)C(=O)O)cc1; 3Pal = N[C@@H](Cc1cccnc1)C(=O)O; NMecPEG3a = not defined here; Pen = CC(C)(S)[C@H](N)C(=O)O; PEG2′ = not defined here; Thp = NC1(C(=O)O)CCOCC1; Sar = CNCC(=O)O
# T1: interleukin-23 receptor (IL-23R) (UniProt Q5VWK5 24-629, limits assumed)
# T1 sequence (looked up): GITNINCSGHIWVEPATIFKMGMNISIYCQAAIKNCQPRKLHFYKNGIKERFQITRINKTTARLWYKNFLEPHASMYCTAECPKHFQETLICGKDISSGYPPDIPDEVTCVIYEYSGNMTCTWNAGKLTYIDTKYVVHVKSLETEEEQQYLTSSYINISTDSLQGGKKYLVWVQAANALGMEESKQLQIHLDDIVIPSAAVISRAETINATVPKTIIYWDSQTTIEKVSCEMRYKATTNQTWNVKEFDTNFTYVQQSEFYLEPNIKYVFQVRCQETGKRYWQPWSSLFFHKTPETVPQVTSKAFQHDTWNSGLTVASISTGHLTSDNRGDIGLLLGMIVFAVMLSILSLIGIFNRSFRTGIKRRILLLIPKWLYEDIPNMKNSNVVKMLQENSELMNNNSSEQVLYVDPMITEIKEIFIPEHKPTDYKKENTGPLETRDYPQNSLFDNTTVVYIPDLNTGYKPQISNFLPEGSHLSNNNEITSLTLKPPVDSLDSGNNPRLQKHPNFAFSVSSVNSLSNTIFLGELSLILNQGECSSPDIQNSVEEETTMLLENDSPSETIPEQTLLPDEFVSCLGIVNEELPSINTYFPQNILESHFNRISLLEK
# Molecular target: T1, interleukin-23 receptor (IL-23R)
# Test: cell-based or functional assay
row,PBMC pSTAT3 IC50,Binder
1,< 0.1 nM,Ac-[dR][Pen]NT[Trp(7-Me)]K(Ac)[Pen][AEF][6F2Nal][Thp]EN[3Pal][Sar]-NH2 (disulfide 2-7 (inferred)) [SEQ ID NO: 407]
2,> 1 nM,Ac-[dR][Pen]NT[Trp(7-Me)]K(Ac)[Pen][AEF][6Br2Nal][Thp]EN[Thp]-NH2 (disulfide 2-7 (inferred)) [SEQ ID NO: 444]
3,< 0.01 nM,Ac-[dR][Pen]NT[Trp(7-Me)]K(Ac)[Pen][AEF][2Nal(6-OH)][Thp]EN[3Pal][Sar]-NH2 (disulfide 2-7 (inferred)) [SEQ ID NO: 442]
4,< 0.01 nM,Ac-X[Pen]NT[Trp(7-Me)]K(Ac)[Pen][AEF][2Nal(6-OH)][Thp]EN[3Pal][Sar]-NH2 (disulfide 2-7 (inferred); not fully specified (residue 1); printed as MeCO-k(d)-Pen(3)-N-T-7MeW-K(Ac)-Pen(3)-AEF-6OH2Nal-THP-E-N-3Pya-Sar-CONH2) [SEQ ID NO: 349]

# Further lines, the binder ahead of its results:
row,Binder,PBMC pSTAT3 IC50
1,Ac-[Pen]NT[Trp(7-Me)]K(Ac)[Pen][AEF][2Nal(6-OH)][Thp]EN[3Pal][Sar]K([PEG2′-PEG2′-γGlu-C18OH])-NH2 (disulfide 1-6 (inferred)) [SEQ ID NO: 283],< 1 nM
2,XXNTXXXXXXENXX (MeCO-k(Me)3-Pen(3)-N-T-7(3NAcPh)W-K(Ac)-Pen(3)-AEF(G)-6OH2Nal-THP-E-N-5MePyridinAla-Sar-CONH2) [SEQ ID NO: 11],< 0.01 nM
3,Ac-[Pen]NT[Trp(7-Me)]K(Ac)[Pen][AEF][2Nal(6-OH)][Thp]K([PEG2′-PEG2′-γGlu-C18OH])N[3Pal][Sar]-NH2 (disulfide 1-6 (inferred)) [SEQ ID NO: 273],< 0.1 nM
4,Ac-[dR][Pen]NT[Trp(7-Me)]K(Ac)[Pen][AEF][2Nal(6-OH)][Thp]EN[3Pal][Sar]K(PEG2NMePEG2NMegENMeCl8Tetrazole)-NH2 (disulfide 2-7 (inferred); reading uncertain) [SEQ ID NO: 115],< 1 nM
5,Ac-[dR][Pen]NT[Trp(7-(3-AcNH-Ph))]K(Ac)[Pen][AEF][2Nal(6-OH)][Thp]EN[3Pal][Sar]-NH2 (disulfide 2-7 (inferred)) [SEQ ID NO: 287],< 0.1 nM
6,Ac-[dR][Pen]NT[Trp(7-Me)]K(Ac)[Pen][AEF][2Nal(6-OH)][Thp]EN[3Pal][Sar]K([PEG2′-PEG2′-γGlu-C18OH])-NH2 (disulfide 2-7 (inferred)) [SEQ ID NO: 282],< 1 nM
7,Ac-[dR][Pen]NT[Trp(7-Me)]K(Ac)[Pen][TMAPF][2Nal(6-OH)][Thp]EN[3Pal][Sar]-NH2 (disulfide 2-7 (inferred)) [SEQ ID NO: 59],< 0.1 nM
8,cPEG3aCO-[Pen]NT[Trp(7-Me)]K(NMecPEG3a)[Pen][AEF][2Nal(6-OH)][Thp]EN[3Pal][Sar]-NH2 (disulfide 1-6 (inferred); not fully specified; printed as cPEG3aCO-Pen(3)-N-T-7MeW-K(NMecPEG3a)-Pen(3)-AEF-6OH2Nal-THP-E-N-3Pya-Sar-CONH2; reading uncertain) [SEQ ID NO: 319],< 0.1 nM
